First the molecules themselves.
B1: Fab 3E9 (Fab, V domains shown)
VH: EVQLVESGGGLVQPGGSLRLSCAASGFNLYYSSMHWVRQAPGKGLEWVASIYPSYGSTYYADSVKGRFTISADTSKNTAYLQMNSLRAEDTAVYYCARNGRYPGFLKRAHKRLLNFKAYVMDYWGQGTLVTVSS
VL: DIQMTQSPSSLSASVGDRVTITCRASQSVSSAVAWYQQKPGKAPKLLIYSASSLYSGVPSRFSGSRSGTDFTLTISSLQPEDFATYYCQQGSWYLITFGQGTKVEIKR
notes: not shown: His tag at the C-terminus of the heavy chain
B2: Fab 33D4 (Fab, V domains shown)
VH: EVQLVESGGGLVQPGGSLRLSCAASGFNIYYSSMHWVRQAPGKGLEWVASISPYSGSTYYADSVKGRFTISADTSKNTAYLQMNSLRAEDTAVYYCARSVHMKLSNKILSGWSWNNSFYAMDYWGQGTLVTVSS
VL: B1 VL with G91S, W93Y, Y94S
notes: also called R2C15; not shown: His tag at the C-terminus of the heavy chain
B3: Fab 32C2 (Fab, V domains shown)
VH: EVQLVESGGGLVQPGGSLRLSCAASGFNLYYYSMHWVRQAPGKGLEWVAYISPYSSSTYYADSVKGRFTISADTSKNTAYLQMNSLRAEDTAVYYCARSQHAKKSTIIRMLEHQSRSGMQYVMDYWGQGTLVTVSS
VL: B1 VL with G91S, W93Y, Y94S
notes: as for B1
B4: Fab 3F3 (Fab, V domains shown)
VH: EVQLVESGGGLVQPGGSLRLSCAASGFNIYSSSMHWVRQAPGKGLEWVAYIYPYSGYTYYADSVKGRFTISADTSKNTAYLQMNSLRAEDTAVYYCARLYNGWLMVEGIGSAREGPTWYAMDYWGQGTLVTVSS
VL: DIQMTQSPSSLSASVGDRVTITCRASQSVSSAVAWYQQKPGKAPKLLIYSASSLYSGVPSRFSGSRSGTDFTLTISSLQPEDFATYYCQQGGVYAAHPFTFGQGTKVEIKR
notes: also called R2C13; not shown: His tag at the C-terminus of the heavy chain
B5: Fab 3G9 (Fab, V domains shown)
VH: EVQLVESGGGLVQPGGSLRLSCAASGFNIYYSSIHWVRQAPGKGLEWVASIYSYSGYTYYADSVKGRFTISADTSKNTAYLQMNSLRAEDTAVYYCARATNEKFRRKSLQVRLLMRSWLAYAMDYWGQGTLVTVSS
VL: B4 VL with G91A, G92S, V93Y, Y94A, A96S, H97A, P98L, F99I
notes: as for B1
B6: Fab 32D1 (Fab, V domains shown)
VH: EVQLVESGGGLVQPGGSLRLSCAASGFNLYYSYMHWVRQAPGKGLEWVASISPYSGYTYYADSVKGRFTISADTSKNTAYLQMNSLRAEDTAVYYCARMSLHRNFNQQGRSRLLGRMPRTYGMDYWGQGTLVTVSS
VL: DIQMTQSPSSLSASVGDRVTITCRASQSVSSAVAWYQQKPGKAPKLLIYSASSLYSGVPSRFSGSRSGTDFTLTISSLQPEDFATYYCQQYYSLITFGQGTKVEIKR
notes: as for B1
B7: Fab 33C4 (Fab, V domains shown)
VH: EVQLVESGGGLVQPGGSLRLSCAASGFNLYSSSMHWVRQAPGKGLEWVASIYPYYGYTYYADSVKGRFTISADTSKNTAYLQMNSLRAEDTAVYYCARPTTSRVNKKLFRVSVLHPGSYGMDYWGQGTLVTVSS
VL: B6 VL with Y91A, Y92S, S93Y
notes: also called R2C3; not shown: His tag at the C-terminus of the heavy chain

Positions count from the first letter of the chain named.

The first assay deals with T1, catalytic domain of MMP-14 (cdMMP-14) (human, UniProt P50281 114-287, limits assumed, biotinylated (Sulfo-NHS-LC-Biotin) where immobilised via streptavidin). The experiment in a line: cell-based or functional assay.
Take B1: the “IC50 by FRET Assay” value is 6000 nM.
Same read-out and setting: the result for B2 reads 3900 nM; that for B3, 8000 nM.
On the same count and under the same terms, with B4 the figure was 970 nM; with B5, 390 nM; with B6, 4200 nM.
With B7, the “IC50 by FRET Assay” value amounted to 4600 nM.

Another assay has as its target T1, catalytic domain of MMP-14 (cdMMP-14). The experiment in a line: cell-based or functional assay. The source holds these as a separate data set.
On to B2, for which the “Inhibition potency (FRET IC50)” value was 3900 nM.
The same measure, in the same setting: with B4 the figure was 970 nM; with B7, 4600 nM.

The target is the same in a further assay. The assay can be described thus: ELISA, Fab titrated on immobilised biotin-cdMMP-14, anti-Fab-HRP.
By EC50 is commonly meant the concentration needed to bring the measured effect to its halfway point. A lower EC50 goes with higher potency in that assay. In turn, B2 showed an EC50 of 460 nM.
On to B4, for which the EC50 amounted to 34 nM.
The molecule B7 registered an EC50 of 220 nM.

Another assay shares this target. The experiment in a line: ELISA, Fab titrated on immobilised MMP-14 catalytic domain, anti-Fab-HRP. For orientation: ELISA stands for enzyme-linked immunosorbent assay.
Protocol: Bound Fabs were detected using the anti-Fab-HRP conjugate. The half-maximal effective concentration (EC₅₀) was calculated from a four-parametric logistic curve-fitting analysis.
The molecule B1 returned an EC50 of 51 nM. That is a double-digit nanomolar value.
Molecule B2 registered an EC50 of 460 nM.
For B3, the 50% effective concentration (EC50) was determined as 150 nM. This EC50 is about 3.1-fold lower than that of the molecule before.
Same read-out and setting: with B4 the figure was 34 nM.
On the same count and under the same terms, the result for B5 reads 160 nM.
On the same count and under the same terms, the result for B6 reads 350 nM; that for B7, 220 nM.

The values are drawn from patent publication US20190185581A1 (University of California, published 2019).
